Here are results for 5 molecules from publication PMC8444148 (Molecular psychiatry, 2019).

First the molecules themselves.
B1: DISC1 322-852 (predicted helical region of DISC1) (domain or fragment, UniProt Q811T9-1 322-852, looked up)
chain: ADAHGWHTLLREWEPMLQDYLLSNRRQLEVTSLILKLQKCQEKVVEDGDYDTAETLRQRLEELEQEKGRLSWALPSQQPALRSFLGYLAAQIQVALHGATQRAGSDDPEAPLEGQLRTTAQDSLPASITRRDWLIREKQRLQKEIEALQARMSALEAKEKRLSQELEEQEVLLRWPGCDLMALVAQMSPGQLQEVSKALGETLTSANQAPFQVEPPETLRSLRERTKSLNLAVRELTAQVCSGEKLCSSLRRRLSDLDTRLPALLEAKMLALSGSCFSTAKELTEEIWALSSEREGLEMFLGRLLALSSRNSRRLGIVKEDHLRCRQDLALQDAAHKTRMKANTVKCMEVLEGQLSSCRCPLLGRVWKADLETCQLLMQSLQLQEAGSSPHAEDEEQVHSTGEAAQTAALAVPRTPHPEEEKSPLQVLQEWDTHSALSPHCAAGPWKEDSHIVSAEVGEKCEAIGVKLLHLEDQLLGAMYSHDEALFQSLQGELQTVKETLQAMILQLQPTKEAGEASASYPTAGAQETEA
B2: ATF4 leucine zipper domain (residues 314-349) (domain or fragment, UniProt Q06507 314-349, looked up)
chain: KNEALKEKADSLAKEIQYLKDLIEEVRKARGKKRVP

Series [1] addresses B2. Briefly: ITC.
Series [2] concerns the target B1. Briefly: ITC. (Isothermal titration calorimetry measures the heat released or taken up as one component is titrated into another.)
The series “SEC-MALS” deals with the molecule itself. Briefly: SEC-MALS. A general note: In gel filtration, larger molecules generally elute earlier.
A further series concerns the target C/EBPα (UniProt P53566 1-359). Briefly: ITC.
The target of a further series is C/EBPζ (CHOP) (UniProt P35639 1-168). As to the kind of experiment: ITC.
C/EBPζ (CHOP), sequence (P35639 whole entry): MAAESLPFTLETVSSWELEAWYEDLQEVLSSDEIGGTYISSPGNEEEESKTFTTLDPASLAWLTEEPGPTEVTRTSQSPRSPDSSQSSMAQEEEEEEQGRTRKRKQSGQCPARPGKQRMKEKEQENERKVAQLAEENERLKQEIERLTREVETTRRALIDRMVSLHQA
Series [3] concerns the target T1, ATF4 278-349 (basic region + leucine zipper) (UniProt Q06507 278-349).
T1 sequence: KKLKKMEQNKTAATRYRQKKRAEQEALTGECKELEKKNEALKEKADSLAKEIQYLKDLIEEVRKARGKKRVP
Briefly: ITC.

C/EBPα, sequence (P53566 whole entry): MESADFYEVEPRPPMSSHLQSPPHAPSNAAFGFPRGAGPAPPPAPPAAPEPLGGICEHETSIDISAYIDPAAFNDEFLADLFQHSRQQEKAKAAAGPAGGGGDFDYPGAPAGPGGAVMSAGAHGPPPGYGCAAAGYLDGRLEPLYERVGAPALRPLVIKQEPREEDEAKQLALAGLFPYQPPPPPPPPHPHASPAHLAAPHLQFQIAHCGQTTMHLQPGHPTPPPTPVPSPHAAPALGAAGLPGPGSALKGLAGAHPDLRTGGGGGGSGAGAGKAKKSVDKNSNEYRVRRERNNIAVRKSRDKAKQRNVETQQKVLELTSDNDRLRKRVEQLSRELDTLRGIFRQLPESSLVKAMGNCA

Take B1: in series [1], the “stoichiometry N” value turned out to be 1.

In the case of B2, in series [2], the Kd was around 14 nM.

B3: trx tagged-ATF4-LZ (domain or fragment, UniProt Q06507 314-349, looked up)
chain: KNEALKEKADSLAKEIQYLKDLIEEVRKARGKKRVP
Take B3: the “stoichiometry N” value in “SEC-MALS” was 2.

B4: DISC1-CC (coiled coil, residues 765-835) (domain or fragment, UniProt Q811T9-1 765-835, looked up)
chain: GPWKEDSHIVSAEVGEKCEAIGVKLLHLEDQLLGAMYSHDEALFQSLQGELQTVKETLQAMILQLQPTKEA
In turn, B4 displayed a Kd with C/EBPα of around 11000 nM. Moreover, the “fold weaker than the DISC1/ATF4 interaction” value with C/EBPζ (CHOP) is around 2000 fold.

B5: CRE dsDNA (dsDNA)
DNA 1: GCAGATGACGTCATCTGC
DNA 2: GCAGATGACGTCATCTGC
B5: the Kd in series [3] is around 12 nM.

One may read the stoichiometry N as a count of units in the complex or per binding partner. By Kd is commonly meant the equilibrium constant for the complex coming apart.
